Measurements: publication PMC5996960 (Molecular Biology of the Cell, 2018)

Target: T1, His6-tagged yeast cyclin C (S. cerevisiae, UniProt P47821 1-323)
T1 sequence (looked up): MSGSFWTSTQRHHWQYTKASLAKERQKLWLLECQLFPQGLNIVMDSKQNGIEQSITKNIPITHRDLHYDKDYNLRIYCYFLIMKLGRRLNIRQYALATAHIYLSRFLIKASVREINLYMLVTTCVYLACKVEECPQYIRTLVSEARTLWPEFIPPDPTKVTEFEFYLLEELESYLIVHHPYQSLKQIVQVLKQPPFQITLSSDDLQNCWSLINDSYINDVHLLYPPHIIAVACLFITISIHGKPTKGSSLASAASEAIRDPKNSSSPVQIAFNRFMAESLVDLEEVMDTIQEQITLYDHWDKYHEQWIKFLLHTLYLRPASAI
Test: pull-down

B1: GST-Med13^742-844 (domain or fragment, S. cerevisiae, UniProt P38931 742-844, looked up)
chain: DIPQTESPLKTVDSSIQPIESNIKMTLEDNNVTSNPSEFTPNMVNSEISNLPKDKSGIPEFTPADPNLSFESSSSLPFLLRHMPLASIPDIFITPTPVVTISE
B1: binds.
